Measurements reported in PMC9876794 (2022).
Like-named read-outs stand apart in the source and are kept apart here.

Experiments:
[1] = molecular target: T1, SARS-CoV-2 spike RBD (WT) (Severe acute respiratory syndrome …, UniProt P0DTC2); test: BLI
[2] = molecular target: T1, SARS-CoV-2 spike RBD (WT); test: ELISA; set-up: unit not given here
[3] = molecular target: T1, SARS-CoV-2 spike RBD (WT); test: BLI; remark: listed apart in the source

B1: D046 (antibody, V domains shown)
VH: EVQLVESGGGLVQPGGSLRLSCAASGFTFSSYWMHWVRQAPGKGLVWVSRINSDGSSTSYADSVKGRFTISRDNAKNTLYLQMNSLRAEDTAVYYCARGVPHDYGDYESVILAGYYYYYYGMDVWGQGTTVTVSS
VL: not shown
Kd [1]: 42.4 nM | binding score [2]: 6.02

B2: B32 (antibody, V domains shown)
VH: QVQLQQSGPELVKPGASVKISCKASGYAFSSSWMNWVKQRPGKGLEWIGRIYPGDGDTNYNGKFKGKATLTADKSSSTAYMQLSSLTSEDSAVYFCARELDPPWGQGTTLTVSS
VL: DILMTQSPSSMSVSLGDTVSITCHASQGISSNIGWLQQKPGKSFKGLIYHGTNLEDGVPSRFCGSGSGADYSLTISSLESEDFADYYCVQYAQFPFTFGSGTKLEIK
Kd [3]: 95.8 nM

B3: C2719 (antibody, V domains shown)
VH: EVQLVESGGGLIQPGGSLRLSCAASGFTVSSNYMSWVRQAPGKGLEWVSVIYSGGSTYYADSVKGRFTISRDNSKNTLYLQMNSLRAEDTAVYYCARDLGPYGMDVWGQGTTVTVSS
VL: DIQLTQSPSFLSASVGDRVTITCRASQGISSYLAWYQQKPGKAPKLLIYAASTLQSGVPSRFSGSGSGTEFTLTISSLQPEDFATYYCQQLNSYPPEIGQGTRLEIK
Kd [1]: 127 nM | binding score [2]: 59.3

B4: B33 (antibody, V domains shown)
VH: EVQLQQSGPELVKPGTSVKISCKASGYSFTGYYMNWVKQSPEKSLEWIGEINPSTGGTTYNQKFKAKATLTVDKSSSTAYMQLKSLTSEDSAVYYCARADYWGQGTTLTVSS
VL: DIVLTQSPASLAVSLGQRATISCRASESVEYYVTSLMQWYQQKPGQPPKLLIYAASNVESGVPARFSGSGSGTDFSLNIHPVEEDDIAMYFCQQSREVPYTFGGGTKLEIK
Kd [3]: 72.7 nM

B5: B03 (antibody, V domains shown)
VH: EVQLQQSGPELVKPGASVKISCKASGYSFTGYYMNWVKQSPEKSLEWIGEINPSTGGATYNQKFKAKATLTVDKSSSTASMQLKSLTSEDSAVYYCARAAGDYWGQGTTLTVSS
VL: DIVLTQSPASLAVSLGQRATISCRASESVEYYGTSLMQWYQQKPGQPPKLLIYAASNVESGVPARFSGSGSGTDFSLNIHPVEEDDIAMYFCQQSRKVPWTFGGGTKLEIK
Kd [3]: 52.6 nM

B6: B02 (antibody, V domains shown)
VH: QVQLQQPGAELVKPGASVKVSCKASGYTFTSYWMHWVKQRPGQGLEWIGRIHPSDSDTNYNQKFKGKATLTVDKSSSTAYMQLSSLTSEDSAVYYCAMDWDVDYWGQGTTLTVSS
VL: QIVLTQSPALMSASPGEKVTMTCSASSSVSYMYWYQQKPRSSPKPWIYLTSNLASGVPARFSGSGSGTSYSLTISSMEAEDAATYYCQQWSSNPFTFGSGTKLEIK
Kd [3]: 580 nM

B7: B27 (antibody, V domains shown)
VH: EVKLEESGGGLVQPGGSMKLSCAASGFTFSDAWMDWVRQSPEKGLEWVAEIRNKANNHATYYAESVKGRFTISRDDSKSSVYLQMNSLRAEDTGIYYCTNYKYYAMDYWGQGTSVTVSS
VL: QIVLTQSPAIMSASPGEKVTMTCSASSSVSYMYWYQQKPGSSPRLLIYDTSNLASGVPVRFSGSGSGTSYSLTISRMEAEDAATYYCQQWSSYPLTFGAGTKLELK
Kd [3]: 120 nM

B8: A49 (antibody, V domains shown)
VH: QVQLQQSGSELARPGASVNLSCKASGYTFTSYGVSWVKQRTGQGLEWIGDIYPRSGNSYYNEKFKGKATLTADKSSSTAYMELRSLTSEDSAVYFCAREVYGYEFDYWGQGTTLTVSS
VL: DIQMTQTTSSLSASLGDRVTISCRASQDISNYLNWYQQKPDGTVQLLIYYTSRLHSGVPSRFSGSGSGTDYSLTISNLEQEDIATYFCQQGNTLPRTFGGGTKLEIK
Kd [3]: 482 nM

B9: B05 (antibody, V domains shown)
VH: QVQLKQSGAELVRPGASVKLSCKASGYTFTDYYINWVKQRPGQGLEWIARIYPGSGNPYYNEKFKGKATLTAEKSSSTAYMQLSSLTSEDSAVYFCARRGTLLYAFAYWGQGTLVTVSA
VL: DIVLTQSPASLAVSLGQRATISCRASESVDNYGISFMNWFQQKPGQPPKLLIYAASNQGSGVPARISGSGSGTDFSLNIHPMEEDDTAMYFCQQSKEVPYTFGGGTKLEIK
Kd [3]: 68.5 nM

B10: A09 (antibody, V domains shown)
VH: QVQLQQPGAELVKPGASVKVSCKASGYTFTSYWMHWVKQRPGQGLEWIGRIHPSDSDTNYNQKFKGKATLTVDKSSSTAYMQLSSLTSEDSAVYSCARGMDYWGQGTSVTVSS
VL: DVVLTQTPLSLPVNIGDQASISCKSTKSLLNSVGFTYLDWYLQKPGQSPQLLIYLVSNRFSGVPDRFSGSGSGTDFTLKISRVEAEDLGVYYCFQSNYLPYTFGGGTKLEIK
Kd [3]: 30.2 nM

B11: A24 (antibody, V domains shown)
VH: DVQLQESGPGLVKPSQSLSLTCSVTGYSITSGYYWNWIRQFPGNKMEWMGYITYDGRNTYNPSPKNRLSITRDTSKNQFFLKLNSVTTEDTATYYCARCHYYGSSYAMDYWGQGTSVTVSS
VL: DIVMTQSHKFMSTSVGDRVSITCKASQDVSTAVAWYRQKPGQSPKLLIYWASTRHTGVPDRFTGSGSGTDYTLTISSVQPEDLALYYCQQHYTTPLTFGAGTKLELK
Kd [3]: 205 nM

B12: D147 (antibody, V domains shown)
VH: QVQLVESGGGVVQPGRSLRLSCAASGFTFSSYGMYWVRQAPGKGLEWVAVISYDGSNKYYADSVKGRFTISRDNSKNTLYLQMNSLRAEDTAVYYCAKGGGEYCSGGNCYSSYFDYWGQGTLVTVSS
VL: not shown
Kd [1]: 94.2 nM | binding score [2]: 7.89

B13: B22 (antibody, V domains shown)
VH: EVKLEESGGGLVQPGGSMKLSCAASGFTFSDAWMDWVRQSPEKGLEWVAEIRNKANNHAIYYAESVKGRFTISRDDSKSSVYLQMNSLRAEDTGIYYCILFLTGHFDYWGQGTTLTVSS
VL: DIVMTQSQKFMSTSVGDRVSITCKASQNVRTAVVWYQEKPGQSPKTLIYLASNRHTGVPDRFTGSGSGTDFTLTISNVQSEDLADYFCLQHWNYPLTFGSGTKLEIK
Kd [3]: 269 nM

B14: D064 (antibody, V domains shown)
VH: EVQLVQSGAEVKKPGESLKISCKGSGYSFTSYWIGWVRQMPGKGLEWMGIIYPGDSDTRYSPSFQGQVTISADKSISTAYLQWSSLKASDTAMYYCASHAGGYDFDYYYMDVWGKGTTVTVSS
VL: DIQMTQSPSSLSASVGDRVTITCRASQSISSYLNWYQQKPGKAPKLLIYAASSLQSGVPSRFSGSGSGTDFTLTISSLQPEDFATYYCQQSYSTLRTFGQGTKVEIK
Kd [1]: 344 nM | binding score [2]: 1230

B15: B07 (antibody, V domains shown)
VH: QVQLQQSGPELVKPGASVKISCKASGYVFSSSWMNWVKQRPGKGLEWIGRIYPGDGETNYNGKFKGKATLTADKSSSTAYMQLSSLTSEDSAVYFCARFDYGYDGHVWGTGTTVTVSS
VL: DIVMTQSQKFMSTSVGDRVSVTCKASQNVGTNVAWYQQKPGQSPKALIYSASYLYSGVPDRFTGSGSGTDFTLTISNVQSEDLAEYFCQQYNSYPLLTFGAGTKLELK
Kd [3]: 17700 nM

B16: C2724 (antibody, V domains shown)
VH: not shown
VL: EIVLTQSPATLSLSPGERATLSCRASQSVSSYLAWYQQKPGQAPRLLIYDASNRATGIPARFSGSGSGTDFTLTISSLEPEDFAVYYCQQRSNCPLTFGGGTKVEIK
Kd [1]: 174 nM | binding score [2]: 604

B17: C2727 (antibody, V domains shown)
VH: EVQLVESGGGLIQPGGSLRLSCAASGFTVSSNYMSWVRQAPGKGLEWVSVIYSGGSTYYADSVKGRFTISRDNSKNTLYLQMNSLRAEDTAVYYCAREGPQKTDWGQGTLVTVSS
VL: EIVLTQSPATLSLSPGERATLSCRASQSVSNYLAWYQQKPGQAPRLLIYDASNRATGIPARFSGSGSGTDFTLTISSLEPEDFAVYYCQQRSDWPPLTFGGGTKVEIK
Kd [1]: 99.6 nM | binding score [2]: 20

B18: A47 (antibody, V domains shown)
VH: HVQLQQPGAELVKPGASVKVSCKASGYTFTSFWMHWVKQRPGQGLEWIGGIHPSDSDTNYNQKFKGKATLTVNKSSSTAYMQLSSLTSEDSAVYYCAIGDECANWGQGTLVTVSA
VL: DIVLTQSPASLAVSLGQRATISCRASKSVSTSGYSYMHWYQQKPGQPPKLLIYLASNLESGVPARFSGSGSGTDFTLNIHPVEEEDAATYYCHHSRELPFTFGSGTKLEIK
Kd [3]: 142 nM
